Laboratory results taken from publication PMC2696590 (2009).

B1: [^3H]-neurotensin [modified: pyroGlu at position 1; [3,11-tyrosyl-3,5-^3H(N)] (tritium on Tyr3 and Tyr11); pyroGlu at position 1; [3,11-tyrosyl-3,5-^3H(N)] (tritium on Tyr3 and Tyr11)] [not stated] / wild-type NTS1 (N-terminally truncated … (parent complex)
chain 1: not shown
chain 2: TSESDTAGPNSDLDVNTDIYSKVLVTAIYLALFVVGTVGNSVTAFTLARKKSLQSLQSTVHYHLGSLALSDLLILLLAMPVELYNFIWVHHPWAFGDAGCRGYYFLRDACTYATALNVASLSVERYLAICHPFKAKTLMSRSRTKKFISAIWLASALLAIPMLFTMGLQNRSGDGTHPGGLVCTPIVDTATVKVVIQVNTFMSFLFPMLVISILNTVIANKLTVMVHQAAEQGRVCTVGTHNGLEHSTFNMTIEPGRVQALRHGVLVLRAVVIAFVVCWLPYHVRRLMFCYISDEQWTTFLFDFYHYFYMLTNALFYVSSAINPILYNLVSANFRQVFLSTLACLCPGWRHRRKKRPTFSRKPNSMSSNHAFSTSATRETLY

Variants of: B1
Experiment: saturation binding assay on intact E. coli cells; intact E. coli cells

Row | Kd [nM] | Variant
1 | 0.1 | chain 2 A44L, chain 2 F316A
